Test results taken from patent publication JP2024517985A.
Numbering of substitutions follows the chain as printed.

T1: CD300c抗原(11832-H08H、Sino Biological) (UniProt Q08708)
T1 sequence (looked up): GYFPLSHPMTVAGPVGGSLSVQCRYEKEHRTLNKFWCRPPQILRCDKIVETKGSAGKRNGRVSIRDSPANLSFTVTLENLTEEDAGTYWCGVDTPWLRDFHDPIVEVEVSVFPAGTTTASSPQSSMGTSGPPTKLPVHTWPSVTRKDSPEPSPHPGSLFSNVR

B1: 抗-CD300cモノクローナル抗体 CK3 (antibody, from another filing, V domains shown)
VH: RVQLLESGGGLVQPGGSLRLSCAASGFTFSSYAISWVRQAPGKGLEWVSATSGSGRATYYADSVKGRFTISRDNSKNTLYLQMNSLRAEDTAVYYCARDTWWEGYFDLWGQGTLVTVSS
VL: EIVLTQSPGTLSLSPGERATLSCQASHISTHLNWYQQKPGQAPRLLIYGASSRATGIPDRFSGSGSGTDFTLTISRLEPEDFAVYYCQQYNTYPPTFGQGTKVEIK
B2: 抗-CD300cモノクローナル抗体 SK15 (antibody, from another filing, V domains shown)
VH: RVQLLESGGGLVQPGGSLRLSCAASGFTFSSYAMHWVRQAPGKGLEWVSAINGSGGSTYYADSVKGRFTISRDNSKNTLYLQTNSLRAEDTAVYYCARGLQGFDYWGQGTLVTVSS
VL: EIVLTQSPGTLSLSPGERATLSCQASQDITNYLNWYQQKPGQAPRLLIYDASSLETGIPDRFSGSGSGTDFTLTISRLEPEDFAVYYCQQSYSTPITFGQGTKVEIK
B3: 抗-CD300cモノクローナル抗体 SK16 (antibody, from another filing, V domains shown)
VH: B2 VH with H35S, Y59L, T83M, L100V, Q101S, Y105S
VL: B2 VL with Q24R, A25I, D28S, T30S, N31S, S53L, L54R, E55A, S93K

The binders below were run against T1, CD300c抗原(11832-H08H、Sino Biological) (assay: binding ELISA, CD300c antigen coated at 8 ug/mL, HRP anti-Fc IgG).

| EC50 [µg/mL] | Binder |
| --- | --- |
| > 0.2 | B1 |
| > 0.2 | B2 |
| > 0.2 | B3 |
